This is an account of results in publication PMC4522062, “Obatoclax is a direct and potent antagonist of membrane-restricted Mcl-1 and is synthetic lethal with treatment that induces Bim” (BMC Cancer, 2015).

Data set [1] concerns the target N-Flag-human Mcl-1 C16A, C286A, Δ328-361, with a carboxyl-terminal hexa-His tag and a terminal Cys (human) (UniProt Q07820).
Data set [2] deals with the molecule itself. Put plainly: cross-linking; Bak conjugated onto liposomes (2 mol% Mal-PEG3-PE, 1 mol% DOGS-NTA-Ni, 2 mg lipid/ml), 100 mM KCl, 10 mM Hepes pH 7.0, 1 h at room temperature with Bim BH3 peptide (…-OH); proteoliposomes recovered by centrifugation; 0.5 mM BS3, 1 h at room temperature; SDS-PAGE and anti-Bak immunoblot. Background: A western blot detects proteins with antibodies after separation by electrophoresis.

Sequence of N-Flag-human Mcl-1 C16A, C286A, Δ328-361, with a carboxyl-terminal hexa-His tag and a terminal Cys (human) (Q07820 1-327 C16A/C286A): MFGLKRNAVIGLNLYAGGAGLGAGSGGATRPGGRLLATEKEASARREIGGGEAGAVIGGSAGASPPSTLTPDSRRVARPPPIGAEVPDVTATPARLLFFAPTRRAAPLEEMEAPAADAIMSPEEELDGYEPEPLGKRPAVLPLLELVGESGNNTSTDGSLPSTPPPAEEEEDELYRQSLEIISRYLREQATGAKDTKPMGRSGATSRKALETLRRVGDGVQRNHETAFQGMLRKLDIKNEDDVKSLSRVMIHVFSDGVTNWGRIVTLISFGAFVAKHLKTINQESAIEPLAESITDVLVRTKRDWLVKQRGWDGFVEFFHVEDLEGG

On to Noxa BH3 peptide, for which the tBid-induced (40 nM), Bak-dependent calcein release from proteoliposomes: molar excess of Noxa BH3 peptide relative to Mcl-1 that overcame the inhibition by Mcl-1 (molar excess relative to Mcl-1) in data set [1] was 2.5.

B1: N-Flag-human Bak C14A, C166A, ΔC186-211, with a carboxyl-terminal hexa-His tag and a terminal Cys (domain or fragment, UniProt Q16611 1-185, looked up)
chain: MASGQGPGPPRQEAGEPALPSASEEQVAQDTEEVFRSYVFYRHQQEQEAEGVAAPADPEMVTLPLQPSSTMGQVGRQLAIIGDDINRRYDSEFQTMLQHLQPTAENAYEYFTKIATSLFESGINWGRVVALLGFGYRLALHVYQHGLTGFLGQVTRFVVDFMLHHAIARWIAQRGGWVAALNLGN
modifications: terminal Cys linked covalently to the liposome lipid Mal-PEG3-PE (where that lipid was included)
notes: Bak, human; the C-terminal TM segment (ΔC186-211) replaced by 6 His residues and a unique terminal Cys; The pET151 vector may add further N-terminal residues; also called BakΔC*; surface anchored Bak; source: E. coli BL21Star (pET151 vector), purified from the soluble extract on Ni2+-NTA resin; not shown: His6 followed by a terminal Cys, C-terminal, kept
As to B1, the binding result in data set [2] is on record as “binds”.
